Results reported in PMC5870055, “Structural and Mechanistic Analysis of the Choline Sulfatase from Sinorhizobium melliloti: A Class I Sulfatase Specific for an Alkyl Sulfate Ester” (Journal of Molecular Biology, 2018).

Molecular target: the molecule itself
Assay: SEC-MALS; 100 uL of 2 mg/mL protein on Superdex 200 10/300 HR in 100 mM Tris-HCl pH 8.0, 150 mM NaCl, 0.5 mL/min; multi-angle light scattering and differential refractive index detectors

Row | Protein | stoichiometry N
1 | Sinorhizobium meliloti choline sulfatase wild type (enzyme, Sinorhizobium meliloti 1021, UniProt O69787 1-512, looked up, Cys54 partially converted into formylglycine (fGly); modelled as cysteine and formyl glycine at 50% occupancy each, Choline sulfatase (BetC) of S. meliloti 1021; the whole gene (positions 1491-3029 of GenBank U39940) amplified from genomic DNA and cloned into pASK-IBA5plus; the C-terminal region is printed as residues 449-512; Protomer Mw ~61 kDa; also called SmCS; SmCS WT; source: E. coli BL21(DE3) expressing MtbFGE, purified (Q-Sepharose, Strep-Tactin, Superdex 200)) MTTGKPNILIIMVDQLNGKLFPDGPADFLHAPNLKALAKRSARFHNNYTSSPLCAPARASFMAGQLPSRTRVYDNAAEYQSSIPTYAHHLRRAGYYTALSGKMHFVGPDQLHGFEERLTTDIYPADFGWTPDYRKPGERIDWWYHNLGSVTGAGVAEITNQMEYDDEVAFLANQKLYQLSRENDDESRRPWCLTVSFTHPHDPYVARRKFWDLYEDCEHLTPEVGAIPLDEQDPHSQRIMLSCDYQNFDVTEENVRRSRRAYFANISYLDEKVGELIDTLTRTRMLDDTLILFCSDHGDMLGERGLWFKMNFFEGSARVPLMIAGPGIAPGLHLTPTSNLDVTPTLADLAGISLEEVRPWTDGVSLVPMVNGVERTEPVLMEYAAEASYAPLVAIREGKWKYVYCALDPEQLFDLEADPLELTNLAENPRGPVDQATLTAFRDMRAAHWDMEAFDAAVRESQARRWVVYEALRNGAYYPWDHQPLQKASERYMRNHMNLDTLEESKRYPRGE | 4
2 | SmCS Δ12 (truncated mutant lacking 12 C-terminal amino acids) (domain or fragment, Sinorhizobium meliloti 1021, UniProt O69787 1-500, looked up, Choline sulfatase (BetC) of S. meliloti 1021 with Thr501 replaced by a stop codon, so that the last 12 residues (501-512) are missing; Predominantly a tetramer (87%), with some dimer (11%) and monomer (2%); Made from the pASK-IBA5plusSmCS WT plasmid by QuikChange; source: E. coli BL21(DE3) expressing MtbFGE, purified (Q-Sepharose, Strep-Tactin, Superdex 200)) MTTGKPNILIIMVDQLNGKLFPDGPADFLHAPNLKALAKRSARFHNNYTSSPLCAPARASFMAGQLPSRTRVYDNAAEYQSSIPTYAHHLRRAGYYTALSGKMHFVGPDQLHGFEERLTTDIYPADFGWTPDYRKPGERIDWWYHNLGSVTGAGVAEITNQMEYDDEVAFLANQKLYQLSRENDDESRRPWCLTVSFTHPHDPYVARRKFWDLYEDCEHLTPEVGAIPLDEQDPHSQRIMLSCDYQNFDVTEENVRRSRRAYFANISYLDEKVGELIDTLTRTRMLDDTLILFCSDHGDMLGERGLWFKMNFFEGSARVPLMIAGPGIAPGLHLTPTSNLDVTPTLADLAGISLEEVRPWTDGVSLVPMVNGVERTEPVLMEYAAEASYAPLVAIREGKWKYVYCALDPEQLFDLEADPLELTNLAENPRGPVDQATLTAFRDMRAAHWDMEAFDAAVRESQARRWVVYEALRNGAYYPWDHQPLQKASERYMRNHMNLD | 4
3 | SmCS Δ23 (truncated mutant lacking 23 C-terminal amino acids) (domain or fragment, Sinorhizobium meliloti 1021, UniProt O69787 1-489, looked up, Choline sulfatase (BetC) of S. meliloti 1021 with Glu490 replaced by a stop codon, so that the last 23 residues (490-512) are missing; Predominantly a dimer (78%); source: E. coli BL21(DE3) expressing MtbFGE, purified (Q-Sepharose, Strep-Tactin, Superdex 200)) MTTGKPNILIIMVDQLNGKLFPDGPADFLHAPNLKALAKRSARFHNNYTSSPLCAPARASFMAGQLPSRTRVYDNAAEYQSSIPTYAHHLRRAGYYTALSGKMHFVGPDQLHGFEERLTTDIYPADFGWTPDYRKPGERIDWWYHNLGSVTGAGVAEITNQMEYDDEVAFLANQKLYQLSRENDDESRRPWCLTVSFTHPHDPYVARRKFWDLYEDCEHLTPEVGAIPLDEQDPHSQRIMLSCDYQNFDVTEENVRRSRRAYFANISYLDEKVGELIDTLTRTRMLDDTLILFCSDHGDMLGERGLWFKMNFFEGSARVPLMIAGPGIAPGLHLTPTSNLDVTPTLADLAGISLEEVRPWTDGVSLVPMVNGVERTEPVLMEYAAEASYAPLVAIREGKWKYVYCALDPEQLFDLEADPLELTNLAENPRGPVDQATLTAFRDMRAAHWDMEAFDAAVRESQARRWVVYEALRNGAYYPWDHQPLQKAS | 2
